{
  "source": "paper PMC12710124",
  "about": "“Pleomorphism in Wild-Type and Engineered PP7 Virus-Like Particles” (Small (Weinheim an der Bergstrasse, Germany), 2025)",
  "test_in_all_cases": "cryo-EM structure; 3D reconstruction of purified VLPs self-assembled in the bacterial expression host; closed cages (T = 3, T = 4, D5, D5E, C2, C3) and tubes",
  "key": {"[1]": {"biological_target": "PP7-AY-PP7, PP7 coat protein dimer with AY linker (Pseudomonas phage PP7)"}, "[2]": {"biological_target": "PP7-AY-PP7, PP7 coat protein dimer with AY linker (Pseudomonas phage PP7)", "remark": "listed apart in the source"}, "[3]": {"biological_target": "the molecule itself"}},
  "note": "Where “and” joins values, the source holds several entries; their conditions need not be identical. Equal entries are not always repeated. Where two headings read alike, the source gives them in different places.",
  "data": [
    {"molecule": "PP7-AY-PP7, PP7 coat protein dimer with AY linker", "values": [
      {"measurement": "stoichiometry N", "setting": "[1]", "value": 87, "unit": "copies"},
      {"measurement": "stoichiometry N", "setting": "[2]", "value": 102, "unit": "copies"}
    ]},
    {"molecule": "PP7 coat protein (wild-type, monomeric) (natural protein, Self-assembles in the expression host into VLPs; also called PP7 CP; PP7 capsid protein; source: bacterial expression host (E. coli), recombinantly expressed, purified as VLPs) MSKTIVLSVGEATRTLTEIQSTADRQIFEEKVGPLVGRLRLTASLRQNGAKTAYRVNLKLDQADVVDCSTSVCGELPKVRYTQVWSHDVTIVANSTEASRKSLYDLTKSLVATSQVEDLVVNLVPLGR", "values": [
      {"measurement": "stoichiometry N", "setting": "[3]", "value": "150 coat proteins and 174 copies and 204 copies"}
    ]}
  ]
}
